From the supplement of paper PMC10567573

B1: IKZF1 (parent)
chain: YHSQDRYEFSSHITRGEHRFHMS

Variants of: B1
Assay: protein stability index of a GFP-peptide fusion (GPS, HEK-293T) (PSI 1-6); higher = more stable
Details: c terminus: native
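Note: lentivirally expressed fusions sorted by FACS into six bins by GFP to DsRed ratio, PSI derived from sequencing read proportions per bin multiplied by bin number.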

| Variant | protein stability index |
| --- | --- |
| E17W | 2.07 |
| E17C | 3.05 |
| E17F | 1.62 |
| E17A | 2.75 |
| E17K | 2.41 |
| E17Q | 2.48 |
| E17T | 1.4 |
| E17G | 1.56 |
| E17N | 2.92 |
| E17L | 2.11 |
| E17S | 1.64 |
| E17P | 2.04 |
| E17H | 1.99 |
| E17D | 1.63 |
| E17Y | 1.7 |
| F20R | 2.36 |
| F20D | 1.76 |
| F20C | 2.12 |
| F20Q | 2.5 |
| F20P | 1.59 |
| F20H | 1.93 |
| F20M | 1.83 |
| F20T | 1.75 |
| F20G | 1.67 |

| Variant | protein stability index |
| --- | --- |
| F20Y | 1.75 |
| F20K | 2.38 |
| F20A | 2.15 |
| F20N | 2.56 |
| F20W | 2.93 |
| Y7Q | 2.04 |
| Y7A | 1.89 |
| Y7F | 2.78 |
| Y7V | 2 |
| Y7I | 2.27 |
| Y7R | 2.08 |
| Y7N | 1.72 |
| Y7S | 2.2 |
| Y7P | 1.78 |
| Y7M | 1.95 |
| Y7L | 2.33 |
| Y7C | 1.91 |
| Y7E | 2.18 |
| Y7G | 2.44 |
| T14M | 1.84 |
| T14P | 1.52 |
| T14W | 2.7 |
| T14K | 1.49 |
| T14V | 2.04 |

| Variant | protein stability index |
| --- | --- |
| T14C | 1.58 |
| T14Y | 1.37 |
| T14F | 1.47 |
| T14G | 1.54 |
| T14Q | 1.34 |
| T14L | 2.23 |
| T14H | 1.99 |
| H2I | 1.94 |
| H2A | 2.5 |
| H2T | 3.16 |
| H2S | 3.36 |
| H2F | 2.51 |
| H2E | 3.98 |
| H2K | 2.01 |
| H2D | 3.76 |
| H2C | 2.04 |
| H2L | 2.02 |
| H2V | 2.58 |
| H2N | 3.72 |
| H2P | 3.48 |
| H2G | 3.11 |
| H2W | 2.41 |
| H2M | 2.48 |
| H2Y | 2.85 |

| Variant | protein stability index |
| --- | --- |
| H12R | 2.79 |
| H12S | 3.03 |
| H12D | 1.88 |
| H12A | 1.71 |
| H12G | 3.61 |
| H12M | 2.74 |
| H12C | 2.66 |
| H12Q | 2.83 |
| H12P | 2.27 |
| H12W | 2.85 |
| H12L | 2.06 |
| H12T | 2.15 |
| H12N | 2.67 |
| H12E | 2.47 |
| H12V | 2.49 |
| S11R | 2.33 |
| S11L | 3.83 |
| S11C | 1.68 |
| S11N | 1.92 |
| S11H | 1.61 |
| S11T | 2.02 |
| S11G | 2 |
| S11I | 1.65 |
| S11Q | 2.07 |

| Variant | protein stability index |
| --- | --- |
| S11M | 1.48 |
| S11V | 1.6 |
| S11A | 2.36 |
| S11W | 2.27 |
| S11D | 2.01 |
| S11F | 2.9 |
| S11K | 1.95 |
| E8K | 3.34 |
| E8F | 3.7 |
| E8M | 2.11 |
| E8S | 3.3 |
| E8N | 3.99 |
| E8G | 1.72 |
| E8I | 2.78 |
| E8V | 1.98 |
| E8L | 4.01 |
| E8Y | 3.85 |
| E8C | 2.5 |
| E8T | 3.44 |
| E8Q | 2.17 |
| E8H | 4.13 |
| E8W | 2.44 |
| R19P | 1.77 |
| R19C | 3.13 |

| Variant | protein stability index |
| --- | --- |
| R19D | 1.93 |
| R19M | 1.92 |
| R19W | 2.84 |
| R19N | 2.27 |
| R19T | 1.92 |
| R19G | 1.89 |
| R19S | 1.99 |
| R19L | 2.54 |
| R19F | 2.39 |
| R19Y | 2.16 |
| R19H | 1.3 |
| S23K | 2.28 |
| S23Q | 2.68 |
| S23C | 1.94 |
| S23A | 1.8 |
| S23V | 1.97 |
| S23I | 2.18 |
| S23G | 2 |
| S23L | 1.68 |
| S23R | 1.61 |
| S23Y | 2.42 |
| S23H | 2.23 |
| S23F | 2.01 |
| S23W | 2.5 |

| Variant | protein stability index |
| --- | --- |
| S23E | 1.5 |
| S23P | 2 |
| I13E | 1.83 |
| I13V | 1.78 |
| I13Q | 1.62 |
| I13N | 2.05 |
| I13L | 2.52 |
| I13R | 1.49 |
| I13F | 1.81 |
| I13H | 2.36 |
| I13Y | 1.49 |
| I13G | 2.7 |
| I13M | 2.04 |
| I13A | 1.85 |
| I13P | 1.78 |
| S10D | 1.74 |
| S10L | 1.66 |
| S10V | 1.95 |
| S10Q | 2.08 |
| S10M | 1.6 |
| S10T | 1.62 |
| S10N | 1.72 |
| S10A | 1.4 |
